Experimental data from publication doi:10.1101/2020.09.09.287508 (bioRxiv, 2020).

B1: KREMEN1 (receptor)
chain: ARPAPSPGLGPECFTANGADYRGTQNWTALQGGKPCLFWNETFQHPYNTLKYPNGEGGLGEHNYCRNPDGDVSPWCYVAEHEDGVYWKYCEIPACQMPGNLGCYKDHGNPPPLTGTSKTSNKLTIQTCISFCRSQRFKFAGMESGYACFCGNNPDYWKYGEAASTECNSVCFGDHTQPCGGDGRIILFDTLVGACGGNYSAMSSVVYSPDFPDTYATGRVCYWTIRVPGASHIHFSFPLFDIRDSADMVELLDGYTHRVLARFHGRSRPPLSFNVSLDFVILYFFSDRINQAQGFAVLYQAVKEELPQERPAVNQTVAEVITEQANLSVSAARSSKVLYVITTSPSHPPQTVPGSNSWAPPMGAGSHRVEGWTVYGLATLLILTVTAIVAKILLHVTFKSHRVPASGDLRDCHQPGTSGEIWSIFYKPSTSISIFKKKLKGQSQQDDRNPLVSD
B2: ASGR1 (receptor)
chain: MTKEYQDLQHLDNEESDHHQLRKGPPPPQPLLQRLCSGPRLLLLSLGLSLLLLVVVCVIGSQNSQLQEELRGLRETFSNFTASTEAQVKGLSTQGGNVGRKMKSLESQLEKQQKDLSEDHSSLLLHVKQFVSDLRSLSCQMAALQGNGSERTCCPVNWVEHERSCYWFSRSGKAWADADNYCRLEDAHLVVVTSWEEQKFVQHHIGPVNTWMGLHDQNGPWKWVDGTDYETGFKNWRPEQPDDWYGHGLGGGEDCAHFTDDGRWNDDVCQRPYRWVCETELDKASQEPPLL

Target: SARS-CoV-2 S-ECD-hFc (extracellular domain of the spike (S) protein, hFc-tagged) (SARS-CoV-2, UniProt P0DTC2 14-1213)
Experiment: flow cytometry on cells

Binder | Kd
B1 | 19.3 nM
B2 | 94.8 nM
